The values below come from publication PMC9741652, “CRL2^ZER1/ZYG11B recognizes small N-terminal residues for degradation” (Nature Communications, 2022).

One test concerns the target T1, SFLHVGQD peptide.
T1 chain: SFLHVGQD
Description: ITC. Particulars: chain shown with the change;; parent: 1.3.

The target of test [1] is ZYG11B (residues 490–728), Q9C0D3. As to the kind of experiment: ITC. Particulars: chain shown with the change;; parent: 2.5 µM.
Chain of ZYG11B (residues 490–728), Q9C0D3 (Q9C0D3 other isoform, or with tags, fused parts or gaps): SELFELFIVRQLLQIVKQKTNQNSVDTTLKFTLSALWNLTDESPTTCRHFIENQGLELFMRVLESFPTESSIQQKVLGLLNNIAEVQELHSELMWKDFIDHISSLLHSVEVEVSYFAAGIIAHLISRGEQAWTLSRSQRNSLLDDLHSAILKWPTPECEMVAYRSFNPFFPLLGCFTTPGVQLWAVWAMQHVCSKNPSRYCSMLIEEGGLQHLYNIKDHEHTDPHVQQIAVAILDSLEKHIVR

B1: ZER1 (residues 469–766), Q7Z7L7 D556A (protein)
chain: MEELEELEFQYRRVNELLLSILNPTRQDESIQRIAVHLCNALVCQVDNDHKEAVGKMGFVVTMLKLIQKKLLDKTCDQVMEFSWSALWNITAETPDNCEMFLNFNGMKLFLDCLKEFPEKQELHRNMLGLLGNVAEVKELRPQLMTSQFISVFSNLLESKADGIEVSYNACGVLSHIMFDGPEAWGVCEPQREEVEERMWAAIQSWDINSRRNINYRSFEPILRLLPQGISPVSQHWATWALYNLVSVYPDKYCPLLIKEGGMPLLRDIIKMATARQETKEMARKVIEHCSNFKEENMDTSR
As for B1, the Kd with SFLHVGQD peptide was above 100 µM.

B2: ZER1 (residues 469–766), Q7Z7L7 E600A (protein)
chain: MEELEELEFQYRRVNELLLSILNPTRQDESIQRIAVHLCNALVCQVDNDHKEAVGKMGFVVTMLKLIQKKLLDKTCDQVMEFSWSALWNITDETPDNCEMFLNFNGMKLFLDCLKEFPEKQELHRNMLGLLGNVAAVKELRPQLMTSQFISVFSNLLESKADGIEVSYNACGVLSHIMFDGPEAWGVCEPQREEVEERMWAAIQSWDINSRRNINYRSFEPILRLLPQGISPVSQHWATWALYNLVSVYPDKYCPLLIKEGGMPLLRDIIKMATARQETKEMARKVIEHCSNFKEENMDTSR
As to B2, in the test with SFLHVGQD peptide, the dissociation constant (Kd) is above 100 µM.

B3: GFLHVGQD peptide G1V (peptide)
chain: VFLHVGQD
For the molecule B3, the Kd in test [1] was above 100 µM.

A word on the Kd: it is the constant that tells how readily two partners part at equilibrium.
